What was measured:
[1] = target: T1, PbtAC (PbtA C-terminal domain) (Vibrio anguillarum RV22) (UniProt A0A289GIJ0); assay: EMSA; conditions: 1 mM Tris pH 7.5, 155 mM KCl, 0.1 mM DTT, 5% glycerol, 5 mM MgCl2, 1 mM EDTA, 0.3 mg/mL BSA, 30 min at 20 C
T1 sequence: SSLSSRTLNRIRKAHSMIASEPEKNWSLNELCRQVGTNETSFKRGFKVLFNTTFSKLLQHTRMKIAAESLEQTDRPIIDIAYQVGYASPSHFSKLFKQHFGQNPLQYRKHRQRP

[2] = test system: PbtAC (PbtA C-terminal domain) (Vibrio anguillarum RV22); assay: EMSA; conditions: 1 mM Tris pH 7.5, 155 mM KCl, 0.1 mM DTT, 5% glycerol, 5 mM MgCl2, 1 mM EDTA, 0.3 mg/mL BSA, 30 min at 20 C, scale: free probe band ratio to no-protein control

Row | Substance | binding signal [2] | also measured
1 | AAAAATAGACGACCCGATCTATTCAAGCTTGTTTAAAATAACAATCATAAACGTCGATTCACGCTCTTTTTATGCCTTATTCAGTTAGCAGGTAAAAGACAGAATCGGCACTATAAGTTCAATATGGATACCACAG (double strand) [Probe 5 (frpA)] | – | binding [1]: binds
2 | LPS wzi(ab) promoter (P4) | 0.26 | –
3 | PfrpA (Probe 1) | 0.49 | –
4 | PfrpC (Probe 9) | 0.41 | –
5 | TAAAACAAAACCAGAAAATAAAATAAAAATCAACAAAATTAAATGCTTAATTTTAATTAAGTTC (double strand) [Probe 4 (frpA, 6xAAAAT low complexity region)] | – | binding [1]: no binding
6 | TATTGAGCAATTGAGGATTAATGAATGTGGCCACTAATATACTAATACCGATTGCTGAGTGGTGGGCTAGTTACGACTAAACGCGACGATTTTATACCTAATTGCGTTAGCGATGGCATGCATATTCAGCAAAAATAGCCTCCATTTATG (double strand) [Probe 12 (frpC)] | – | binding signal ([1]; scale: free probe band ratio to no-protein control): 0.7
7 | hcp1 promoter (P5) | 0.74 | –
8 | hcp2 promoter (P6) | 0.28 | –
9 | vanT promoter (P3) | 0.81 | –
10 | vgrG promoter (P2?) | 0.09 | –
11 | vipA promoter (P1?) | 0.2 | –

Reference: paper PMC10826351
